# Laboratory results published in PMC2121072.
# Biological target: full-length GST-hDlg fusion protein (human) (UniProt Q12959)
# Experiment: pull-down
# full-length GST-hDlg fusion protein (human), sequence (Q12959 whole entry, the tested form may be a part): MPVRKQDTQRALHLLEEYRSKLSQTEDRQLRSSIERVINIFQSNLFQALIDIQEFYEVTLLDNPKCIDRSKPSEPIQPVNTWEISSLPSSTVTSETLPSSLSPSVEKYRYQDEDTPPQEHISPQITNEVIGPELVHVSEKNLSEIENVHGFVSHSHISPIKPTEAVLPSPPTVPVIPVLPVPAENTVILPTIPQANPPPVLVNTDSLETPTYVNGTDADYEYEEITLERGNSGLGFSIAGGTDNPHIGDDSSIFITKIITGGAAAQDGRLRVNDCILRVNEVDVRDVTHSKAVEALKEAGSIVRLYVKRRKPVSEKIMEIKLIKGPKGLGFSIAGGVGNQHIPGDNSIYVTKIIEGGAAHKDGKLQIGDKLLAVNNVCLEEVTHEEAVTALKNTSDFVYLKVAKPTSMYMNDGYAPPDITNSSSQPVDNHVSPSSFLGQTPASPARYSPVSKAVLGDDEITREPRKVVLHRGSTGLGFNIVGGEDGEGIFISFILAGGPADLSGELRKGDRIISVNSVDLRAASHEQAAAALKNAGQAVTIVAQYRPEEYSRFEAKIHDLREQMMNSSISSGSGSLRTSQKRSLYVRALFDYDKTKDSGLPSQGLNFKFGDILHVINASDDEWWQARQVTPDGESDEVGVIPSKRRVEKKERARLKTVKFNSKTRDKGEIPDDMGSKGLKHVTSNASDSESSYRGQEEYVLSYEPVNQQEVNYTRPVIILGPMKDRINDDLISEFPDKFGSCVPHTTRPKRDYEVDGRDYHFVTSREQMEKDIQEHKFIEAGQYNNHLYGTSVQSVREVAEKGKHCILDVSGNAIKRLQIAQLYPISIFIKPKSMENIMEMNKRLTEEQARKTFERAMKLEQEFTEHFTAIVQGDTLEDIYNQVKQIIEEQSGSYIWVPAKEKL
substance,measurement,value
125I-labeled 30-kD amino-terminal domain of protein 4.1 (domain or fragment),Kd,5.3 nM
